{
  "source": "patent US20060084135",
  "target": "T1, p53-382 acetylated peptide (Fluor de Lys-SIRT1), RHKK(Ac)",
  "T1 chain": "RHKK",
  "data": [
    {"protein": "recombinant human SIRT1 (protein) MADEAALALQPGGSPSAAGADREAASSPAGEPLRKRPRRDGPGLERSPGEPGGAAPEREVPAAARGCPGAAAAALWREAEAEAAAAGGEQEAQATAAAGEGDNGPGLQGPSREPPLADNLYDEDDDDEGEEEEEAAAAAIGYRDNLLFGDEIITNGFHSCESDEEDRASHASSSDWTPRPRIGPYTFVQQHLMIGTDPRTILKDLLPETIPPPELDDMTLWQIVINILSEPPKRKKRKDINTIEDAVKLLQECKKIIVLTGAGVSVSCGIPDFRSRDGIYARLAVDFPDLPDPQAMFDIEYFRKDPRPFFKFAKEIYPGQFQPSLCHKFIALSDKEGKLLRNYTQNIDTLEQVAGIQRIIQCHGSFATASCLICKYKVDCEAVRGDIFNQVVPRCPRCPADEPLAIMKPEIVFFGENLPEQFHRAMKYDKDEVDLLIVIGSSLKVRPVALIPSSIPHEVPQILINREPLPHLHFDVELLGDCDVIINELCHRLGGEYAKLCCNPVKLSEITEKPPRTQKELAYLSELPPTPLHVSEDSSSPERTSPPDSSVIVTLLDQAAKSNDDLDVSESKGCMEEKPQEVQTSRNVESIAEQMENPDLKNVGSSTGEKNERTSVAGTVRKCWPNRVAKEQISRRLDGNQYLFLPPNRYIFHGAEVYSDSEDDVLSSSSCGSNSDSGTCQSPSLEEPMEDESEIEEFYNGLEDEPDVPERAGGAGFGTDGDDQEAINEAISVKQEVTDMNYPSNKS", "values": [
      {"measurement": "Km (+100 µM resveratrol), SIRT1 initial rate vs p53-382 acetylated peptide concentration at 3 mM NAD+", "result": "Km(+resveratrol, Δ)=1.8 µM"},
      {"measurement": "Km (control), SIRT1 initial rate vs p53-382 acetylated peptide concentration at 3 mM NAD+", "result": "Km(control, ▪)=64 µM"},
      {"measurement": "fold decrease of the acetylated peptide Km with 100 µM resveratrol", "result": "Its effect on the acetylated peptide Km was particularly striking, amounting to a 35-fold decrease"}
    ]}
  ]
}
